Experimental data taken from paper PMC11834443, “Allosteric regulation of pyruvate kinase enables efficient and robust gluconeogenesis by preventing metabolic conflicts and carbon overflow” (mSystems, 2025).

B1: Bacillus subtilis pyruvate kinase, wild-type full length (enzyme, B. subtilis, UniProt P80885 1-585, looked up)
chain: MRKTKIVCTIGPASESIEMLTKLMESGMNVARLNFSHGDFEEHGARIKNIREASKKLGKNVGILLDTKGPEIRTHTMENGGIELETGKELIISMDEVVGTTDKISVTYEGLVHDVEQGSTILLDDGLIGLEVLDVDAAKREIKTKVLNNGTLKNKKGVNVPGVSVNLPGITEKDARDIVFGIEQGVDFIAPSFIRRSTDVLEIRELLEEHNAQDIQIIPKIENQEGVDNIDAILEVSDGLMVARGDLGVEIPAEEVPLVQKELIKKCNALGKPVITATQMLDSMQRNPRPTRAEASDVANAIFDGTDAIMLSGETAAGSYPVEAVQTMHNIASRSEEALNYKEILSKRRDQVGMTITDAIGQSVAHTAINLNAAAIVTPTESGHTARMIAKYRPQAPIVAVTVNDSISRKLALVSGVFAESGQNASSTDEMLEDAVQKSLNSGIVKHGDLIVITAGTVGESGTTNLMKVHTVGDIIAKGQGIGRKSAYGPVVVAQNAKEAEQKMTDGAVLVTKSTDRDMIASLEKASALITEEGGLTSHAAVVGLSLGIPVIVGLENATSILTDGQDITVDASRGAVYQGRASVL
notes: This looks larger than the untagged protein, although the methods say the His tag was removed with TEV protease; also called WT Pyk; WT; source: E. coli BL21 (DE3), purified (HisTrap FF, TEV digestion, size-exclusion chromatography); not shown: His6, N-terminal, cleaved
B2: Bacillus subtilis pyruvate kinase lacking the extra C-terminal domain (residues 1-474) (domain or fragment, B. subtilis, UniProt P80885 1-474, looked up)
chain: MRKTKIVCTIGPASESIEMLTKLMESGMNVARLNFSHGDFEEHGARIKNIREASKKLGKNVGILLDTKGPEIRTHTMENGGIELETGKELIISMDEVVGTTDKISVTYEGLVHDVEQGSTILLDDGLIGLEVLDVDAAKREIKTKVLNNGTLKNKKGVNVPGVSVNLPGITEKDARDIVFGIEQGVDFIAPSFIRRSTDVLEIRELLEEHNAQDIQIIPKIENQEGVDNIDAILEVSDGLMVARGDLGVEIPAEEVPLVQKELIKKCNALGKPVITATQMLDSMQRNPRPTRAEASDVANAIFDGTDAIMLSGETAAGSYPVEAVQTMHNIASRSEEALNYKEILSKRRDQVGMTITDAIGQSVAHTAINLNAAAIVTPTESGHTARMIAKYRPQAPIVAVTVNDSISRKLALVSGVFAESGQNASSTDEMLEDAVQKSLNSGIVKHGDLIVITAGTVGESGTTNLMKVHTVGD
notes: pyruvate kinase (Pyk) of Bacillus subtilis, N-terminal residues 1-474, without the extra C-terminal domain (ECTD); in pLIC-trPC-HA (plasmid pJW724); This looks larger than untagged residues 1-474, although the methods say the His tag was removed with TEV protease; also called PykΔECTD; ΔECTD pyruvate kinase; source: E. coli BL21 (DE3), purified (HisTrap FF, TEV digestion, size-exclusion …)

What was measured:
[1] = target: T1, wild-type full length pyruvate kinase (WT Pyk) (Bacillus subtilis, UniProt P80885); assay: LDH-coupled assay, fit to nonessential activation equation; type: biochemical
[2] = target: T1, wild-type full length pyruvate kinase (WT Pyk); assay: LDH-coupled assay, NADH absorbance at […] nm; type: biochemical
[3] = target: T1, wild-type full length pyruvate kinase (WT Pyk); type: biochemical
[4] = target: the molecule itself; assay: SEC; 100 µL of 100 µM protein on Superdex200 26/60; 20 mM Tris-Cl pH 7.5, 300 mM NaCl, 1 mM EDTA, 1 mM DTT, 10% glycerol; 3 mL/min, 4°C; mass from a standard curve of partition coefficients
purified protein = substrate: Nc1ncnc2c1ncn2[C@@H]1O[C@H](COP(=O)(O)OP(=O)(O)O)[C@@H](O)[C@H]1O; assay: purified protein; details: pH 7.5

Molecule | stoichiometry N [4] | Km (purified protein) [µM] | other results
O=P(O)(O)OC[C@H]1OC(O)[C@H](O)[C@@H]1O (stereo partly shown) [R5P] | – | – | Kd [1]: 570 ± 40 µM
Nc1ncnc2c1ncn2[C@@H]1O[C@H](COP(=O)(O)OP(=O)(O)OP(=O)(O)O)[C@@H](O)[C@H]1O [ATP] | – | – | Ki [2]: 520 ± 50 µM
Nc1ncnc2c1ncn2[C@@H]1O[C@H](COP(=O)(O)O)[C@@H](O)[C@H]1O [AMP] | – | – | LDH-coupled assay, NADH absorbance at 340 nm [3]: wild-type B. subtilis pyruvate kinase was activated by AMP or R5P (Fig. S3a)
B1 | 4 | 1010 ± 30 | –
B2 | 4 | 1830 ± 240 | –
